In article PMC10257715, “Allosteric activation of cell wall synthesis during bacterial growth” (Nature Communications, 2023):

Molecular target: the molecule itself
Experiment: cryo-EM structure; purified RodA-PBP2 complex in 0.02% DDM, 350 mM NaCl, 20 mM HEPES pH 7.5; Titan Krios 300 kV; low-resolution maps

B1: Escherichia coli PBP2, wild type, of ^EcRodA-PBP2^WT (cryo-EM sample) (enzyme, UniProt P0AD65 1-633, looked up)
chain: MKLQNSFRDYTAESALFVRRALVAFLGILLLTGVLIANLYNLQIVRFTDYQTRSNENRIKLVPIAPSRGIIYDRNGIPLALNRTIYQIEMMPEKVDNVQQTLDALRSVVDLTDDDIAAFRKERARSHRFTSIPVKTNLTEVQVARFAVNQYRFPGVEVKGYKRRYYPYGSALTHVIGYVSKINDKDVERLNNDGKLANYAATHDIGKLGIERYYEDVLHGQTGYEEVEVNNRGRVIRQLKEVPPQAGHDIYLTLDLKLQQYIETLLAGSRAAVVVTDPRTGGVLALVSTPSYDPNLFVDGISSKDYSALLNDPNTPLVNRATQGVYPPASTVKPYVAVSALSAGVITRNTTLFDPGWWQLPGSEKRYRDWKKWGHGRLNVTRSLEESADTFFYQVAYDMGIDRLSEWMGKFGYGHYTGIDLAEERSGNMPTREWKQKRFKKPWYQGDTIPVGIGQGYWTATPIQMSKALMILINDGIVKVPHLLMSTAEDGKQVPWVQPHEPPVGDIHSGYWELAKDGMYGVANRPNGTAHKYFASAPYKIAAKSGTAQVFGLKANETYNAHKIAERLRDHKLMTAFAPYNNPQVAVAMILENGGAGPAVGTLMRQILDHIMLGDNNTDLPAENPAVAAAEDH
notes: Forms dimers of the RodA-PBP2 complex when overexpressed; also called ^EcPBP2; ^EcWT; source: overexpressed, purified
**Q.** With B1 as the protein, how does the “stoichiometry N” value read?
**A.** 2
